The results in this text go back to paper PMC8639797.

This test deals with ALK ECR^ABR variants with single substitutions in the TNF-like or EGF-like domains (BLI, Fig. 2d). The test can be described thus: BLI.

B1: ALKAL2-AD (residues 77–152) (domain or fragment)
chain: GPSPEQRVEIVPRDLRMKDKFLKHLTGPLYFSPKCSKHFHRLYHNTRDCTIPAYYKRCARLLTRLAVSPVCMEDKQ
B1 yielded a fold reduction of affinity against wild type of 2 to 3 fold.
